Measured values reported in the supplement of paper PMC10567573.

B1: PDS5B (parent)
chain: IYKKYALQSAAGKDAAKQIAWIKD

Variants of: B1
Assay: protein stability index of a GFP-peptide fusion (GPS, HEK-293T) (PSI 1-6); higher = more stable
Conditions: c terminus: a fixed tail appended
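Further: lentivirally expressed fusions sorted by FACS into six bins by GFP to DsRed ratio, PSI derived from sequencing read proportions per bin multiplied by bin number.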

Protein stability index: each site, then its substitutions
D24: L 2.02 | N 2.24 | S 2.42 | M 1.59 | V 2.52 | Y 1.14 | T 1.94 | H 2.14 | K 2.19 | G 2.08 | F 2.15 | W 1.66 | I 1.76 | Q 1.7 | R 1.97 | P 2.79
